Measured values: patent US20210388087A1 (Chugai, published 2021)
Numbering of substitutions follows the chain as printed. One block for each binder: values may come before it.

Key:
human CD137-Fc [1] = target: T1, human CD137-Fc (human, biotin-labeled); assay: bead ELISA on biotin-human CD137-Fc with 125 pmol/well free CD3e peptide as competitor;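 also: Streptavidin-coated magnetic beads in blocking buffer as the capture surface, well signal read as fluorescence 2 min after adding APS-5 substrate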
T1 construct: if 90 already holds the Fc, drop the second piece; also called biotin-labeled human CD137 fused to human IgG1 Fc fragment; biotin-human CD137-Fc; not shown: human IgG1 Fc fragment

human CD137-Fc [2] = target: T1, human CD137-Fc; assay: bead ELISA on biotin-human CD137-Fc, 0 pmol free CD3e peptide
human CD137-Fc [3] = target: T1, human CD137-Fc; assay: bead ELISA on biotin-human CD137-Fc, 125 vs 0 pmol free CD3e peptide;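 also: target captured on streptavidin-coated magnetic beads, signal read as fluorescence 2 min after adding APS-5 substrate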
human CD3 ed = human CD3 ed (human, UniProt P07766 23-126; P04234 22-105, limits assumed); assay: SPR Biacore T200, IgG captured on protein A, 25 C;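 also: antigens diluted in ACES running buffer at pH 7.4 were flowed over antibodies held on a CM3 chip bearing amine-coupled protein A, with buffer alone serving as blank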
cyno CD137 = target: T2, cyno CD137 (cynomolgus monkey, UniProt Q07011 24-186 (human entry), limits assumed); assay: SPR Biacore T200, IgG captured on protein A, 25 C;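 also: antigens diluted in ACES running buffer at pH 7.4 were flowed over antibodies held on a CM3 chip bearing amine-coupled protein A, with buffer alone serving as blank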
T2 construct: also called cynomolgus monkey CD137
T2 chain: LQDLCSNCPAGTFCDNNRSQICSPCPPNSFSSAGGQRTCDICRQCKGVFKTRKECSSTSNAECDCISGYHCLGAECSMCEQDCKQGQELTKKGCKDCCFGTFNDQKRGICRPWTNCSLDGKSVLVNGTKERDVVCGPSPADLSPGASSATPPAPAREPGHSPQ

Human CD3eg linker = target: T3, Human CD3eg linker (human); assay: SPR Biacore T200, 25 C, Ab captured on anti-human Fc, antigen as analyte;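 also: Anti-Fc amine-coupled to a CM4 chip, recombinant human CD3 flowed over in 20 mM ACES buffer pH 7.4 with 150 mM NaCl and 0.05% Tween 20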
T3 construct: Single chain: CD3 epsilon and gamma subunits joined by a 29-mer linker, Flag-tag at the C-terminus; also called recombinant human CD3
T3 chain: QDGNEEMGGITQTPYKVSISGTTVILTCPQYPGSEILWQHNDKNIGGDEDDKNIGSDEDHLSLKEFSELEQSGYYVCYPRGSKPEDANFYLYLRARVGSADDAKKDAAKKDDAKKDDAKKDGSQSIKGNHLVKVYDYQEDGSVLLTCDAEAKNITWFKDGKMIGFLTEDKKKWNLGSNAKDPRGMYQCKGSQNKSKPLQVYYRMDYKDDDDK

Human CD137 ECD = target: T4, Human CD137 ECD (human); assay: SPR Biacore T200, 37 C, Ab captured on anti-human Fc, antigen as analyte;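 also: recombinant human CD137 flowed over antibodies held by amine-coupled anti-human Fc on a CM4 chip, run in ACES pH 7.4 buffer with 150 mM NaCl and 0.05% Tween 20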
T4 construct: also called human CD137 extracellular domain; recombinant human CD137

B3: dBBDu183/L067 (antibody, V domains shown)
VH: QVQLVESGGGLVQPGRSLRLSCAASGFTFSNAWMHWVRQAPGKGLEWVAQIKDKGNAYAAYYAPSVKGRFTISRDDSKNSIYLQMNSLKTEDTAVYYCHYVHYASASTVLPAFGVDAWGQGTTVTVSS
VL: DIVMTQSPLSLPVTPGEPASISCQSSESLVHVNRHTYLHWYQQKPGQAPRLLIYKVYNRFPGVPDRFSGSGSGTDFTLKISRVEAEDVGVYYCAQGTSVPFTFGQGTKLEIK
notes: IgG format; constant regions not specified
Kd (human CD3 ed): 217 nM
koff (human CD3 ed): 0.0193 s⁻¹
kon (human CD3 ed): 88900 M⁻¹ s⁻¹
Kd (cyno CD137): 6200 nM
koff (cyno CD137): 0.00813 s⁻¹
kon (cyno CD137): 1310 M⁻¹ s⁻¹

B4: dBBDu179 (antibody, V domains shown)
VH: B3 VH with K54R, G55S, A57Q, A60T
VL: B3 VL with Q24R, E27Q, V32S, H35N, Y57S, P61S, A94G, S98Q, F101Y
notes: Human IgG1; light chain GLS3000 (kappa)
ELISA signal (human CD137-Fc [1]): 2620
ELISA signal (human CD137-Fc [2]): 61000
Signal decrease (human CD137-Fc [3]): 95.7%

B5: dBBDu173 (antibody, V domains shown)
VH: B3 VH with A57L, S107G, T108G, V109G, P111S, F113Y
VL: B3 VL with Q24R, E27Q, V32S, H35N, Y57S, P61S, A94G, S98Q, F101Y
notes: as for B4
ELISA signal (human CD137-Fc [1]): 2040
ELISA signal (human CD137-Fc [2]): 6540
Signal decrease (human CD137-Fc [3]): 68.8%

B6: H1651L0581 (antibody, V domains shown)
VH: B3 VH with T28V, A32V, M34F, G55Y, A60D, K67E, V109L, F113E
VL: B3 VL with S25P, E27Q, S28E, L29V, V32M, H35N, Y57S, V99H
notes: Dual-Ig, IgG; also called dBBDu183H1651/dBBDu072L0581
Kd (Human CD3eg linker): 517 nM
koff (Human CD3eg linker): 0.0371 s⁻¹
kon (Human CD3eg linker): 71800 M⁻¹ s⁻¹
Kd (Human CD137 ECD): 43.2 nM
koff (Human CD137 ECD): 0.000603 s⁻¹
kon (Human CD137 ECD): 14000 M⁻¹ s⁻¹

B8: dBBDu183 (antibody, V domains shown)
VH: B3 VH
VL: B3 VL with Q24R, E27Q, V32S, H35N, Y57S, P61S, A94G, S98Q, F101Y
notes: Human IgG1; light chain GLS3000 (kappa), before light chain maturation
ELISA signal (human CD137-Fc [1]): 2370
ELISA signal (human CD137-Fc [2]): 34000
Signal decrease (human CD137-Fc [3]): 93%

B9: H1649L0581 (antibody, V domains shown)
VH: B3 VH with T28V, A32V, M34F, G55Y, A60D, G68E, V109L, F113E
VL: B3 VL with S25P, E27Q, S28E, L29V, V32M, H35N, Y57S, V99H
notes: Dual-Ig, IgG; also called dBBDu183H1649/dBBDu072L0581
Kd (Human CD3eg linker): 449 nM
koff (Human CD3eg linker): 0.0336 s⁻¹
kon (Human CD3eg linker): 75000 M⁻¹ s⁻¹
Kd (Human CD137 ECD): 42.8 nM
koff (Human CD137 ECD): 0.000553 s⁻¹
kon (Human CD137 ECD): 12900 M⁻¹ s⁻¹

B11: dBBDu167 (antibody, V domains shown)
VH: B3 VH with A57L, S107G, T108G, V109G, A112G
VL: B3 VL with Q24R, E27Q, V32S, H35N, Y57S, P61S, A94G, S98Q, F101Y
notes: as for B4
ELISA signal (human CD137-Fc [1]): 1940
ELISA signal (human CD137-Fc [2]): 25700
Signal decrease (human CD137-Fc [3]): 92.5%

Results, then the binder that gave them:

ELISA signal (human CD137-Fc [1]): 2190
ELISA signal (human CD137-Fc [2]): 27400
Signal decrease (human CD137-Fc [3]): 92%
B1: dBBDu189 (antibody, V domains shown)
VH: B3 VH with V48I, K54R, G55S, A57Q, A60T, S105Q, T108S, V109L, A112S
VL: B3 VL with Q24R, E27Q, V32S, H35N, Y57S, P61S, A94G, S98Q, F101Y
notes: as for B4

Kd (human CD3 ed): 217 nM
koff (human CD3 ed): 0.00785 s⁻¹
kon (human CD3 ed): 36100 M⁻¹ s⁻¹
Kd (cyno CD137): 4870 nM
koff (cyno CD137): 0.00593 s⁻¹
kon (cyno CD137): 1220 M⁻¹ s⁻¹
B2: dBBDu183/L072 (antibody, V domains shown)
VH: B3 VH
VL: B3 VL with S25A, E27Q, S28E, V32M, H35N, Y57S
notes: IgG format; also called H183L072

ELISA signal (human CD137-Fc [1]): 2500
ELISA signal (human CD137-Fc [2]): 34800
Signal decrease (human CD137-Fc [3]): 92.8%
B7: dBBDu186 (antibody, V domains shown)
VH: B3 VH with K54R, G55S, A57Q, A60T, S105Q
VL: B3 VL with Q24R, E27Q, V32S, H35N, Y57S, P61S, A94G, S98Q, F101Y
notes: as for B4

Kd (human CD3 ed): 9110 nM
koff (human CD3 ed): 0.102 s⁻¹
kon (human CD3 ed): 11200 M⁻¹ s⁻¹
Kd (cyno CD137): 205000 nM
koff (cyno CD137): 0.00223 s⁻¹
B10: dBBDu186/L096 (antibody, V domains shown)
VH: B3 VH with K54R, G55S, A57Q, A60T, S105Q
VL: B3 VL with Q24R, S25T, E27Q, S28E, V32I, H35Y, T36I, Y37F, P61Q, F101Y
notes: as for B3
